# PMC4461315
# Molecular target: human complement Factor H (human) (UniProt P08603)
# Experiment: SPR
# Sequence of human complement Factor H (human) (P08603 19-1231): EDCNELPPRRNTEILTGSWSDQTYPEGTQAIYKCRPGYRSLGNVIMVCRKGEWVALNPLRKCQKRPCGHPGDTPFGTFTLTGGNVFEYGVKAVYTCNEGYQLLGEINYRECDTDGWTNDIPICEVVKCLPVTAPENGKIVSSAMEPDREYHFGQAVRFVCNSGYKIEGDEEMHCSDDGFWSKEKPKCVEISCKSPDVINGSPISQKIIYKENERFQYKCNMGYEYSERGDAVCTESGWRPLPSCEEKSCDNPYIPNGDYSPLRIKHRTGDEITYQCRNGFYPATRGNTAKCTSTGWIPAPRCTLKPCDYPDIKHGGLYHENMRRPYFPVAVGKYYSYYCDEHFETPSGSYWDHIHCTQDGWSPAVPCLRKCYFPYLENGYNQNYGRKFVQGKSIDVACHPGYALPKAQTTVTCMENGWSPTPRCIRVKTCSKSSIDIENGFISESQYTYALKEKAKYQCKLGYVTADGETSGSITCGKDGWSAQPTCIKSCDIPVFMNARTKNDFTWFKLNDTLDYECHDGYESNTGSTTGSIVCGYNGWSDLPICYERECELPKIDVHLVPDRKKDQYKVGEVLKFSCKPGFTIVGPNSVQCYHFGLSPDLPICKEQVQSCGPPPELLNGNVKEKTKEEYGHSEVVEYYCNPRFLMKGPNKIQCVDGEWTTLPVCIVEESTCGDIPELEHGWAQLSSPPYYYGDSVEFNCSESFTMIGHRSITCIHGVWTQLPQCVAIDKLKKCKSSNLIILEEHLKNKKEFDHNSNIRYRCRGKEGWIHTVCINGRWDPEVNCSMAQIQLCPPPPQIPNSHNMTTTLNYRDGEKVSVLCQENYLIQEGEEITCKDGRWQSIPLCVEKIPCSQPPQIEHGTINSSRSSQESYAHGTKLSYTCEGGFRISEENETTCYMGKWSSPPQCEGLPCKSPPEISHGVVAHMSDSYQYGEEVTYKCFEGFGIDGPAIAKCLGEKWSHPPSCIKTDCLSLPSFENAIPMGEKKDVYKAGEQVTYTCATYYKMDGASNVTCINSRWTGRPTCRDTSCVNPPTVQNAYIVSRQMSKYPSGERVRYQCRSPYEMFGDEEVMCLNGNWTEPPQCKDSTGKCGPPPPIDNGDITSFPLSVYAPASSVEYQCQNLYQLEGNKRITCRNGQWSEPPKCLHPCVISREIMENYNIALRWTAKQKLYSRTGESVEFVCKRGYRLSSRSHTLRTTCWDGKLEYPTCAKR
row,Substance,response units at 100 nM FHbp (response units)
1,"FHbp ID 1 E92K mutant, soluble recombinant (from UniProt Q9JXV4 20-274) (natural protein)",< 2
2,"FHbp ID 1 H248L mutant, soluble recombinant (from UniProt Q9JXV4 20-274) (natural protein)",< 2
3,"FHbp ID 1 S223R mutant, soluble recombinant (from UniProt Q9JXV4 20-274) (natural protein)",< 2
